Assay results taken from the supplement of paper PMC9170038.

System: MS2 coat protein
Test: apparent KD of MS2 coat protein; designed switch direction (-1 OFF switch, 1 ON switch): -1; higher = weaker reporter binding
Summary of the method: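 Designed RNA switches with common flanks were transcribed on Illumina chips by stalled E. coli RNA polymerase and titrated with SNAP-549-labelled MS2 coat protein, from 0.7 or 1.5 nM doubling to 3 µM, in Tris-HCl pH 7.5 buffer with KCl, MgCl2, BSA, DTT, tRNA and Tween-20. Steps lasted 0.8–1.5 h (lowest) to 10–20 min (highest). Titrations ran without input, with 200 uM small-molecule ligand, or with an oligonucleotide input. Normalised cluster fluorescence was curve-fitted, and apparent KD is the per-design median over clusters.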

[1] = input ligand: microRNA oligo, concentration not stated
[2] = Eterna round: R95, input ligand: FMN 200 uM
[3] = Eterna round: R95, input ligand: microRNA oligo, concentration not stated
[4] = Eterna round: R95, input ligand: none

Row | Sequence | apparent KD of MS2 coat protein (input ligand: FMN 200 uM) | apparent KD of MS2 coat protein [1] | apparent KD of MS2 coat protein (input ligand: none) | apparent KD of MS2 coat protein [2] | apparent KD of MS2 coat protein [3] | apparent KD of MS2 coat protein [4]
1 | AUUUAAUUUAAUAAGAUCACAUGAGGAUCACCCAUGUAUAUAUAGGAUAUCAGCUCGAUUAGAGCUGAGAAGGAUAUAUACAUG [ExNG3/8-A1] (Eterna round: R96, puzzle: Exclusion NG 3) | 48.9 nM | 21.6 nM | 38.1 nM |  |  | 
2 | GGAGGACGAGCAGGAUAUUUUCACAUGAGGAUCACCCAUGUGUAUUCAGGGUAAUCCUCCGCCGAAAAGAAGGGUUCGGAAGAA [JL ViennaUCT Socedi mod 2] (Eterna round: R96, puzzle: Exclusion NG 2) | 62.9 nM | 39 nM | 47.2 nM |  |  | 
3 | CCGUGGCAAGGAUAUACGUAGGAGAGGAAGGCAAGAGGAGGACAUGAGGAUCACCCAUGUAGAAGGUGCAGAUC [JR_Exclu2_Sub029] (puzzle: Exclusion 2) |  |  |  | 62.3 nM | 77.4 nM | 94.5 nM
4 | UCUUGUUGUCCGUGAGAAGACAUGAGGAUCACCCAUGUUAGUUUGAUUAUGAUGUGUAAGUUUGUUGUUCGUUUUAU [JR_STOV1_v2_Sub072] (Eterna round: R97, puzzle: Sensor, turn-off variant 1) | 53.1 nM |  | 63.1 nM |  |  | 
5 | CCAGUGUAAGGAUAUGACAAUGGUAUCUUCGGAUACCAUUGUCAGAAGGUACAUGAGGAUCACCCAUGUAACAC [Ex4-3: 12] (puzzle: Exclusion 4) |  |  |  |  | 15.3 nM | 
6 | UCUUAUUGCAAGGAUAUGCAAAUUAUUAUUAAUGCAGAAGGUGCUACAUGAGGAUCACCCAUGUUUCCGGGAAA [JR_E6_Sub041] (puzzle: Exclusion 6) |  |  |  | 66.6 nM | 31.6 nM | 31.5 nM
7 | UUUUUAUAUGAAGGAUAUACUUAACAUGAGGAUCACCCAUGUGGUGUUGUGAGUGAGUGAGUUUAGUAGAAGGUCAAUGAUUGU [JMF's solution 60] (Eterna round: R96, puzzle: Exclusion NG 2) | 918 nM | 216 nM | 369 nM |  |  | 
8 | AGACAAACUGCAGGAUAUUGGCUGACUGCAGGUCAAGAAGGGCAGGACAUGAGGAUCACCCAUGUUCAGUAAACAGGGAGUCCU [Eternabot solution 14] (Eterna round: R96, puzzle: Exclusion NG 1) | 309 nM | 43.7 nM | 46.6 nM |  |  | 
9 | GACUUGUUAGGAUAUCUUACAUUUGCAUUAUAGCAACUAUUGGAGAAGGGACAUGAGGAUCACCCAUGUUUGGG [tap-tap-tappy17] (Eterna round: R97, puzzle: Exclusion 4) | 504 nM |  | 479 nM |  |  | 
10 | CAGUACUGAGGAUAUACAUGAGGAUCACCCAUGUGUUCCAGCUAGGAAACUAGCAAAUGUAGAAGGCAGUACUG [Ex3: 827] (Eterna round: R96, puzzle: Exclusion 3) |  | 216 nM |  |  |  | 
11 | UACCUGAGGCUUUGCUUUAGGUUUACAUGAGGAUCACCCAUGUAGGAUAUGGUAGGCUUUGCUUACCAGAAGGACAUGUUAAUU [JL ENG3 1.08] (Eterna round: R96, puzzle: Exclusion NG 3) | 190 nM | 64.9 nM | 59.9 nM |  |  | 
12 | AAGCUGUGAGGAUAUACAUGAGGAUCACCCAUGUUAAGGAAGUCUUGGUUAAUUUGGUGUAGAAGGCGCUUAUU [JR_Ex3_Sub018] (Eterna round: R97, puzzle: Exclusion 3) | 32.6 nM |  | 32.4 nM |  |  | 
13 | CCAAGCUGUGUGAGGAUAUGCUGGACCUUGGUUCAGCAGAAGGCACAUGAGGAUCACCCAUGUGAAAAGCUUGG [Mat - Exclusion 4 - JL Mod - D94] (puzzle: Brourd's mod of Exclusion 4) |  |  |  | 47.5 nM | 16.6 nM | 16.4 nM
14 | CACCGUUACUGAGGAUAUGGUACAUGAGGAUCACCCAUGUAAUAAAUGAGAAUUUCGGAUGUAUUCCAGAAGGCAGAAAUCGGC [Ostricism 63 - Jieux - Exclusion NG 2] (Eterna round: R96, puzzle: Exclusion NG 2) | 65.2 nM | 40.5 nM | 60.3 nM |  |  | 
15 | UCCAAACAUGAGGAUCACCCAUGUGAGGAUAUGAUACUAUGUACUUCGGUACAUAGUAUCAGAAGGCACAUCCA [Ex1-3: 10] (puzzle: Exclusion 1) |  |  |  |  | 13.4 nM | 
16 | GUAUGUUAUGAGGAUAUCGGUGAACAUACACAUCGAGAAGGCAUGACAUGAGGAUCACCCAUGUCGAGGAUGAA [Exclusion 6 - B - 18:e] (puzzle: Exclusion 6) |  |  |  | 47.2 nM | 18 nM | 23.7 nM
17 | UCGGCGCGAGGAUAUGCGGUUCCUCCCUAGGGCCGGAGCGUACAUGAGGAUCACCCAUGUAGAAGGCGCGCCGC [Apr-15 SS2-35] (puzzle: Exclusion 2) |  |  |  |  | 11.2 nM | 
